Test results from patent publication US20230304010A1, “COMPOSITIONS AND METHODS FOR TREATING VIRAL INFECTIONS” (priority 2020, published 2023).
Where “and” joins values, the source holds several entries; their conditions need not be identical. Equal values may be shown once.

B1: Seq39 (LNCOV-31) (peptide)
peptide: EQAKTFLDKFNHEAEDLFPKWSAFLKEQSTLAQMYGLWRALWRLWRSLWRLLWK
modifications: not checked
B2: Seq40 (LNCOV-32) (peptide)
peptide: KTFLDKFNHEAEDLFPKWSAFLKEQSTLAQMYGLWRALWRLWRSLWRLLWK
modifications: not checked
B3: Seq21 (LNCOV-13)/ADGN-106 nanoparticle complex (peptide)
peptide 1: GFQPTNGVKLWRALWRLWRSLWRLLWK
peptide 2: LWRALWRLWRSLWRLLWK
modifications: not checked
B4: Seq17 (LNCOV-15)/ADGN-106 nanoparticle complex (peptide)
peptide 1: NGVEGFNKLWRALWRLWRSLWRLLWK
peptide 2: LWRALWRLWRSLWRLLWK
modifications: not checked
B5: Seq20 (LNCOV-24)/ADGN-106 nanoparticle complex (peptide)
peptide 1: SYGFQPTNGVLWRALWRLWRSLWRLLWK
peptide 2: LWRALWRLWRSLWRLLWK
modifications: not checked
B6: Seq35 (LNCOV-26)/ADGN-106 nanoparticle complex (protein)
peptide 1: KTFLDKFNHEAEDLFYSLWRALWRLWRSLWRLLWK
peptide 2: LWRALWRLWRSLWRLLWK
modifications: not checked
B7: Seq32 (LNCOV-21)/ADGN-106 nanoparticle complex (protein)
peptide 1: IEEQAKTFLDKFNHEAEDLFYQSLWRALWRLWRSLWRLLWK
peptide 2: LWRALWRLWRSLWRLLWK
modifications: not checked
B8: Seq38 (LNCOV-30)/ADGN-106 nanoparticle complex (protein)
peptide 1: NMTQGFWENPGGPTAWDLGKLWRALWRLWRSLWRLLWK
peptide 2: LWRALWRLWRSLWRLLWK
modifications: not checked

What follows are binders tested against SARS-CoV-2 Spike (SARS-CoV-2), P0DTC2 (assay: ACE2:SARS-CoV-2 Spike kit, ACE2 on plate, Spike-Fc added; competitor ACE2).
EQAKTFLDKFNHEAEDLFLWRALWRLWRSLWRLLWK (modifications not checked) [Seq33 (LNCOV-18)] gave an IC50 of 18.4 nM.
KTFLDKFNHEAEDLFPGPKWSAFLKEQSTLAQMYG (modifications not checked) [Seq28 (LNCOV-20)] showed an IC50 of 38.6 nM.

These binders were tested against SARS-CoV-2 Spike (SARS-CoV-2), P0DTC2 (assay: ACE2:SARS-CoV-2 Spike inhibitor screening kit (Example 3)).
NMTQGFWENPGGPTAWDLGK (modifications not checked) [Seq31 (LNCOV-37)] showed an IC50 of 25000 nM.
For EQAKTFLDKFNHEAEDLFPKWSAFLKEQSTLAQMYG (modifications not checked) [Seq27 (LNCOV-27)], the IC50 was 50 nM, the fold more potent than SBP-1 coupled to ADGN-106 was 6 fold and the fold more potent than free SBP-1 was 15 fold.
Work on B1 yielded a fold increase of efficiency over the uncoupled peptide (Seq27/Seq28) of 1.4 fold.
Work on KTFLDKFNHEAEDLFPGPKWSAFLKEQSTLAQMYG (modifications not checked) [Seq28 (LNCOV-20)] yielded an IC50 of 50 nM, a fold more potent than SBP-1 coupled to ADGN-106 of 6 fold and a fold more potent than free SBP-1 of 15 fold.
With B2 the fold increase of efficiency over the uncoupled peptide (Seq27/Seq28) was 1.4 fold.

What follows are binders tested against SARS-CoV-2 Spike (SARS-CoV-2), P0DTC2 (assay: SARS-CoV-2 Spike:ACE2 inhibitor screening kit (Example 4)).
For EQAKTFLDKFNHEAEDLFLWRALWRLWRSLWRLLWK (modifications not checked) [Seq33 (LNCOV-18)], the fold more potent than SBP-1 coupled to ADGN-106 was 8 fold and the fold more potent than free SBP-1 was 14 fold.
Work on NMTQGFWENPGGPTAWDLGK (modifications not checked) [Seq31 (LNCOV-37)] yielded an IC50 of 25000 nM.
For EQAKTFLDKFNHEAEDLFPKWSAFLKEQSTLAQMYG (modifications not checked) [Seq27 (LNCOV-27)], the fold more potent than SBP-1 coupled to ADGN-106 was 3.5 fold and the fold more potent than free SBP-1 was 7 fold.
Work on EQAKTFLDKFNHEAEDLF (modifications not checked) [Seq24 (LNCOV-19)] yielded an IC50 of 570 nM.
For KTFLDKFNHEAEDLFPGPKWSAFLKEQSTLAQMYG (modifications not checked) [Seq28 (LNCOV-20)], the fold more potent than SBP-1 coupled to ADGN-106 was 3.5 fold and the fold more potent than free SBP-1 was 7 fold.

What follows are binders tested against SARS-CoV-2 Spike (SARS-CoV-2), P0DTC2 (assay: inhibitor screening kit; ACE2:SARS-CoV-2 Spike (Example 4 assay)).
Binder KTFLDKFNHEAEDLFYS (modifications not checked) [Seq26 (LNCOV-34)] has an IC50 of 2100 nM.
EQAKTFLDKFNHEAEDLFLWRALWRLWRSLWRLLWK (modifications not checked) [Seq33 (LNCOV-18)] gave an IC50 of 18.4 nM.
NMTQGFWENPGGPTAWDLGK (modifications not checked) [Seq31 (LNCOV-37)] was tested, and the IC50 was > 10000 nM.
With EQAKTFLDKFNHEAEDLFPKWSAFLKEQSTLAQMYG (modifications not checked) [Seq27 (LNCOV-27)] the IC50 was 37.4 nM.
Work on KTFLDKFNHEAEDLFYSLWRALWRLWRSLWRLLWK (modifications not checked) [Seq35 (LNCOV-26)] yielded an IC50 of 728 nM.
In the case of KTFLDKFNHEAEDLFLWRALWRLWRSLWRLLWK (modifications not checked) [Seq34 (LNCOV-25)], the IC50 is reported as > 1000 nM.
B1 was tested, and the IC50 was 68.4 nM.
For TAWDLGKGDFRI (modifications not checked) [Seq29 (LNCOV-35)], the IC50 was > 10000 nM.
With KTFLDKFNHEAEDLF (modifications not checked) [Seq25 (LNCOV-33)] the IC50 was 1900 nM.
For KTFLDKFNHEAEDLFPGPKWSAFLKEQSTLAQMYG (modifications not checked) [Seq28 (LNCOV-20)], the IC50 was 38.6 nM.
With TAWDLGKGDFRILWRALWRLWRSLWRLLWK (modifications not checked) [Seq36 (LNCOV-28)] the IC50 was > 1000 nM.
Binder NMTQGFWENSMLTDLWRALWRLWRSLWRLLWK (modifications not checked) [Seq37 (LNCOV-29)] has an IC50 of 645 nM.
B2 was tested, and the IC50 was 85.4 nM.
For NMTQGFWENSMLTD (modifications not checked) [Seq30 (LNCOV-36)], the IC50 was > 10000 nM.

The binders below were run against ACE2, Q9BYF1 (assay: not given).
ACE2, Q9BYF1, sequence (Q9BYF1 18-740 limits assumed): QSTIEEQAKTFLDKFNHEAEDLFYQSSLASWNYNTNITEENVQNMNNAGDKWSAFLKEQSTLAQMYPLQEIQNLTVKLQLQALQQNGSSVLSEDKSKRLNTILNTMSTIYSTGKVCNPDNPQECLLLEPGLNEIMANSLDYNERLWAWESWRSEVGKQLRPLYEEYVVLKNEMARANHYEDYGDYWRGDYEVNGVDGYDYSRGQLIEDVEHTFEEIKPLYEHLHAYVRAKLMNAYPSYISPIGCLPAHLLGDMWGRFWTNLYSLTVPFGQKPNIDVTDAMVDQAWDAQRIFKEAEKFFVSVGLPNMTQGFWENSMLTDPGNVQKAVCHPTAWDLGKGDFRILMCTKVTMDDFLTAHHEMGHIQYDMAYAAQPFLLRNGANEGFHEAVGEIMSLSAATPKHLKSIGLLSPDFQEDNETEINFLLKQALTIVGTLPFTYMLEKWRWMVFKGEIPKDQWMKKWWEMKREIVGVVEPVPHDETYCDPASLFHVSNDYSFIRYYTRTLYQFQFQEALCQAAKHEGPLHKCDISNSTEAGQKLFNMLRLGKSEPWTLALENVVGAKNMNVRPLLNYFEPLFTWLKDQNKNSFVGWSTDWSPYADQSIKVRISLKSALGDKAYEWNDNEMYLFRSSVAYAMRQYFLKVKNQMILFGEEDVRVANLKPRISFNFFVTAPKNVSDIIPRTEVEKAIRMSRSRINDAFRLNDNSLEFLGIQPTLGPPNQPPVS
For B3, the IC50 was 5.2 nM and 11.2 nM.
B4 was tested, and the IC50 was 3.4 nM and 2.7 nM.
For B5, the IC50 was 3.7 nM and 8.7 nM.

The binders below were run against SARS-CoV-2 Spike (SARS-CoV-2), P0DTC2 (assay: not given).
With B6 the IC50 was 217 nM and 55.4 nM.
B7 was tested, and the IC50 was 24.5 nM and 7.2 nM.
In the case of B8, the IC50 is reported as 91.4 nM and 49.7 nM.

The binders below were run against ACE2, Q9BYF1 (assay: inhibitor screening kit, ADGN-106 nanoparticles (Example 6, section A)).
For B4, the fold more potent than SBP-1-ADGN-106/ADGN-106 complex was 6 fold and the fold more potent than SBP-1 peptide/ADGN-106 complex was 40 fold.
B5 was tested, and the fold more potent than SBP-1-ADGN-106/ADGN-106 complex was 6 fold and the fold more potent than SBP-1 peptide/ADGN-106 complex was 40 fold.

Target: SARS-CoV-2 Spike (SARS-CoV-2), P0DTC2
Experiment: not given
Remark: another data set of the same source
EQAKTFLDKFNHEAEDLF (modifications not checked) [Seq24 (LNCOV-19)] was tested, and the IC50 was 570000 nM.

These binders were tested against SARS-CoV-2 Spike (SARS-CoV-2), P0DTC2 (assay: SARS-CoV-2 Spike:ACE2 inhibitor screening kit (Example 4); Table 7 prints 38.6).
For KTFLDKFNHEAEDLFPGPKWSAFLKEQSTLAQMYG (modifications not checked) [Seq28 (LNCOV-20)], the IC50 was 38.5 nM.

What follows are binders tested against ACE2, Q9BYF1 (assay: inhibitor screening kit, ADGN-106 nanoparticles (Example 6, section B)).
B4 gave a fold more potent than SBP-1-ADGN-106/ADGN-106 complex of 4 fold and a fold more potent than SBP-1 peptide/ADGN-106 complex of 35 fold.

What follows are binders tested against SARS-CoV-2 Spike (SARS-CoV-2), P0DTC2 (assay: inhibitor screening kit; SARS-CoV-2 Spike:ACE2 (Example 3 assay)).
KTFLDKFNHEAEDLFYS (modifications not checked) [Seq26 (LNCOV-34)] was tested, and the IC50 was 1900 nM.
EQAKTFLDKFNHEAEDLFLWRALWRLWRSLWRLLWK (modifications not checked) [Seq33 (LNCOV-18)] was tested, and the IC50 was 178 nM.
With NMTQGFWENPGGPTAWDLGK (modifications not checked) [Seq31 (LNCOV-37)] the IC50 was > 10000 nM.
EQAKTFLDKFNHEAEDLFPKWSAFLKEQSTLAQMYG (modifications not checked) [Seq27 (LNCOV-27)] gave an IC50 of 66.1 nM.
KTFLDKFNHEAEDLFYSLWRALWRLWRSLWRLLWK (modifications not checked) [Seq35 (LNCOV-26)] was tested, and the IC50 was 546 nM.
For KTFLDKFNHEAEDLFLWRALWRLWRSLWRLLWK (modifications not checked) [Seq34 (LNCOV-25)], the IC50 was > 1000 nM.
B1 showed an IC50 of 55.2 nM.
With TAWDLGKGDFRI (modifications not checked) [Seq29 (LNCOV-35)] the IC50 was > 10000 nM.
In the case of KTFLDKFNHEAEDLF (modifications not checked) [Seq25 (LNCOV-33)], the IC50 is reported as 2500 nM.
EQAKTFLDKFNHEAEDLF (modifications not checked) [Seq24 (LNCOV-19)] gave an IC50 of 1300 nM.
Work on KTFLDKFNHEAEDLFPGPKWSAFLKEQSTLAQMYG (modifications not checked) [Seq28 (LNCOV-20)] yielded an IC50 of 58.7 nM.
In the case of TAWDLGKGDFRILWRALWRLWRSLWRLLWK (modifications not checked) [Seq36 (LNCOV-28)], the IC50 is reported as > 1000 nM.
NMTQGFWENSMLTDLWRALWRLWRSLWRLLWK (modifications not checked) [Seq37 (LNCOV-29)] was tested, and the IC50 was > 1000 nM.
Work on B2 yielded an IC50 of 45.1 nM.
For NMTQGFWENSMLTD (modifications not checked) [Seq30 (LNCOV-36)], the IC50 was > 10000 nM.
